Measurements reported in US20190248902A1 (published 2019).
Numbering of substitutions follows the chain as printed.

Assays:
[1] = target: T1, recombinant, soluble human ASGR-1 (human, UniProt P07306 62-291); experiment: Octet BLI dissociation, pH 5.6 plus calcium
T1 construct: biotinylated in the binning assay; also called soluble huASGR-1; Soluble ASGR-1 (Amgen)
T1 sequence: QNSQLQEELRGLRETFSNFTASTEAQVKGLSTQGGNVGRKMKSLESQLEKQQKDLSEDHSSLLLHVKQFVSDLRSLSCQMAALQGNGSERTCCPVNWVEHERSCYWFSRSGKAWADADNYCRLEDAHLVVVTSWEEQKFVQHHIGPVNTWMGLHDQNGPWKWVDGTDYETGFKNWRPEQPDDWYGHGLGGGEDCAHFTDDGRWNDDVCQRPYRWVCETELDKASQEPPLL
Procedure: (§1) The relative dissociation of ASGR-1 from antibodies was measured using a label-free assay on an OctetHTX instrument (Fortebio). Antibody samples were captured on anti-HuFc kinetic biosensors (ForteBio cat #18-5064) at 5 ug/mL in assay buffer (10 mM Tris, 0.1% Triton, 150 mM NaCl, 1 mg/mL BSA, 1 mM CaCl2, pH7.4) for three minutes. A one minute baseline stabilization step was performed in assay buffer. Soluble ASGR-1 (Amgen) at 6 ug/ml in assay buffer was added and association to the antibodies was monitored for two minutes. Subsequent dissociation of ASGR-1 from the antibodies was performed by incubating the ASGR-1-mAb complexes for 10 minutes under each of the following conditions:
(§2) The binding signal at the end of the 2 minute association phase for each dissociation experiment was set to 100% and used to represent the maximal level of ASGR-1 binding. After 1 minute of dissociation, the percentage of ASGR-1 remaining bound was calculated. The lower the percent remaining at a given time point indicates increased levels of dissociation in response to the test conditions (ie. different pH and/or calcium concentrations). The change in the percentage of ASGR-1 remaining bound in response to each test condition relative to the percent remaining in the control conditions (ie. pH 7.4+calcium) was determined. Cut-offs for an antibody to be categorized as being sensitive to a particular condition were set to >10% (ie. if >10% of the ASGR-1 dissociates from the antibody under a particular test condition compared to control condition, it was deemed sensitive to that condition). The analysis was done using the 1 minute dissociation time point (except for mAb 149A1 which was binned based on the 4 minute dissociation time point). Using this analysis, the ASGR-1-binding, receptor-ligand blocking antibodies were separated into groups according to their dissociation profiles in response to pH and calcium (Table 7.3). Antibodies belonging to each category were observed.

[2] = target: T1, recombinant, soluble human ASGR-1; experiment: Octet BLI dissociation, pH 7.4 minus calcium
Procedure: as §1, §2

[3] = target: T1, recombinant, soluble human ASGR-1; experiment: Octet BLI dissociation, pH 5.6 minus calcium
Procedure: as §1, §2

B1: 7E11 (antibody, V domains shown)
VH: QVQLVESGGGVVQPGRSLRLSCAASGFTFSSFGMHWVRQAPGKGLEWVAIIWHDGSNKYYADSVKGRFTISRDNSNNTLYLQMSSLRAEDTAVYYCARDLSMGGMDVWGQGTTVTVSS
VL: DIQMTQSPSSLSASVGDRVTIACRASQNIISYLNWYQQKPGKAPKFLIYTASSLQSGVPSRFSGSGSGTDFTLTISSLQPEDFAIYYCQQTYSTPLTFGGGTKVEIK
notes: hybridoma mAb
% Change Compared to pH 7.4 + Calcium [1]: 5% | % Change Compared to pH 7.4 + Calcium [2]: 9% | % Change Compared to pH 7.4 + Calcium [3]: 14%

B2: 63A10 (antibody, V domains shown)
VH: EVQLVESGGGLVQPGGSLRLSCAASGFTFSSYSMNWVRQAPGKGLEWVSYISSSTSTIYYAASVKGRFTISRDNAKNSLYLQMNSLRDEDTAVYYCARDHRYYDSSGYYSDAFDIWGQGTMVTVSS
VL: NFMLTQPHSVSESPGKTVTISCTRSNGSIVSNYVQWYQQRPGSSPTTVIYEDKRRPSGVPDRFSGSIDSSSNSASLTISGLKTEDEADYYCQSYDSINVVFGGGTKLTVL
notes: hybridoma mAb
% Change Compared to pH 7.4 + Calcium [1]: 3% | % Change Compared to pH 7.4 + Calcium [2]: 8% | % Change Compared to pH 7.4 + Calcium [3]: 47%

B3: 63G7 (antibody, V domains shown)
VH: B2 VH
VL: B2 VL with V48M, K53S, Y90S, S96G
notes: hybridoma mAb
% Change Compared to pH 7.4 + Calcium [1]: 15% | % Change Compared to pH 7.4 + Calcium [2]: 20% | % Change Compared to pH 7.4 + Calcium [3]: 59%

B4: 65F10 (antibody, V domains shown)
VH: QVQLVQSGAEVKKPGASVKVSCKASGYTFTGYHMHWVRQAPGQGLEWMGWINPNNGGTSYAQKFQDRVNMTRDTSISTAYMELSRLRSDDTAVYYCARDSRSSWDYWGQGTLVTVSS
VL: DIQMTQSPSSVSASVGDRVTITCRGGQGISTWLAWYQQKPGKAPKLLIYAASILQSGVPSRFRGRGSGTDFTLTISSLQPEDFATYYCQQGNIFPFTFGRGTKVDIK
notes: hybridoma mAb
% Change Compared to pH 7.4 + Calcium [1]: 18% | % Change Compared to pH 7.4 + Calcium [2]: 25% | % Change Compared to pH 7.4 + Calcium [3]: 37%

B5: 64B12 (antibody, V domains shown)
VH: QLQLQESGPGLVKPSETLSLTCTVSGVSISRSSYYWGWIRQPPGKGLEWIGSIYYSGSTSYNPSLKSRVTISVDTSKNQFSLKLSSVTAADTAVYYCARLDSGWSFDYWGQGTLVTVSS
VL: DIQMTQSPSSLSASVGDRVTITCRASQDISNYLNWYQQKPGTAPNLLISDASILETGVPSTFSGSGSGTDFTFTISSLQPEDIATYYCQQSDNLPCSFGQGTKVEIK
notes: hybridoma mAb
% Change Compared to pH 7.4 + Calcium [1]: 6% | % Change Compared to pH 7.4 + Calcium [2]: 6% | % Change Compared to pH 7.4 + Calcium [3]: 7%

B6: 6D9 (antibody, V domains shown)
VH: EVQLVESGGGLVKPGGSLRLSCAASGFTFSNAWMNWVRLAPGKGLEWVGRIKSKTDGGTTDYAAPVKGRFTISRDDSENTLYLQMNSLKTEDTAVYYCSTDTGPIAARLAYYYYYAMDVWGQGTTVTVSS
VL: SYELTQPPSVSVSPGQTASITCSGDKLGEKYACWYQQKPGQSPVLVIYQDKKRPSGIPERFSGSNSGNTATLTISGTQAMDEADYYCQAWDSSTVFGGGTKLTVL
notes: hybridoma mAb
% Change Compared to pH 7.4 + Calcium [1]: 25% | % Change Compared to pH 7.4 + Calcium [2]: 14% | % Change Compared to pH 7.4 + Calcium [3]: 42%

B7: 68G6 (antibody, V domains shown)
VH: QVQLVQFGGEVKKPGSSVKVSCKASGYTFTGYYMHWVRQAPGQGLEWMGSIYRNSGGTNYAQKFQGRVTMTRDKSISTAYMEKSRIRSDDTAVYYCARAFYYGSGTYYNEFDYWGQGTLVTVSS
VL: SYEVTQPPSVSVSPGQTASITCSGDKLGDKYTYWYQQKAGQSPFLVIYQDRKRPSGIPDRFSGSNSGNTATLTISGTQAMDAADFYCQAWDNSTAVFGGGTKLTVL
notes: hybridoma mAb
% Change Compared to pH 7.4 + Calcium [1]: 39% | % Change Compared to pH 7.4 + Calcium [2]: 22% | % Change Compared to pH 7.4 + Calcium [3]: 47%

B8: 6G6 (antibody, V domains shown)
VH: QVQLVQSGAEVRKPGASVKVSCKASGYTFTNYDINWVRQATGQGPEWMGWMHPNSGNTGYAKKFQGRVTMTRNTSISAAYMVLSSLRSEDTAVYYCALSSGWYYFDYWGQGTLVTVSS
VL: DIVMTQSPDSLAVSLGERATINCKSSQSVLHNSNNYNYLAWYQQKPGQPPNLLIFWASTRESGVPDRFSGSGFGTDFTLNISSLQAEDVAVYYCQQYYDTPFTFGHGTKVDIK
notes: hybridoma mAb
% Change Compared to pH 7.4 + Calcium [1]: -3% | % Change Compared to pH 7.4 + Calcium [2]: 1% | % Change Compared to pH 7.4 + Calcium [3]: 0%
